Laboratory results published in patent publication US20220064286A1.
Each block holds one binder with its values, some of them ahead of it.

Experiments:
[1] = molecular target: hTIGIT mutant Q53A (human) (UniProt Q495A1); assay: SPR (BIACORE), N=2
[2] = molecular target: hTIGIT mutant Y113A (human) (UniProt Q495A1); assay: SPR (BIACORE), N=2
[3] = molecular target: hTIGIT mutant Q53A (human) (UniProt Q495A1); assay: SPR (BIACORE) KD normalized to WT, N=2
[4] = molecular target: hTIGIT mutant Y113A (human) (UniProt Q495A1); assay: SPR (BIACORE) KD normalized to WT, N=2
[5] = molecular target: hTIGIT mutant H76A (human) (UniProt Q495A1); assay: SPR (BIACORE), N=2
[6] = molecular target: hTIGIT mutant L73A (human) (UniProt Q495A1); assay: SPR (BIACORE), N=2
[7] = molecular target: hTIGIT mutant H76A (human) (UniProt Q495A1); assay: SPR (BIACORE) KD normalized to WT, N=2
[8] = molecular target: hTIGIT mutant L73A (human) (UniProt Q495A1); assay: SPR (BIACORE) KD normalized to WT, N=2
[9] = molecular target: hTIGIT mutant N70A (human) (UniProt Q495A1); assay: SPR (BIACORE), N=2
[10] = molecular target: hTIGIT mutant N70A (human) (UniProt Q495A1); assay: SPR (BIACORE) KD normalized to WT, N=2

Chain of hTIGIT mutant Y113A (human) (Q495A1 22-141 Y113A limits assumed): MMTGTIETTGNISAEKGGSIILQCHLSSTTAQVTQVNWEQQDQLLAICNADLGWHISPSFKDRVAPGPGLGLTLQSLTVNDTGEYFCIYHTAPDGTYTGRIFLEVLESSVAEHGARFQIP
Chain of hTIGIT mutant Q53A (human) (Q495A1 22-141 Q53A limits assumed): as the sequence (Q495A1 22-141 Y113A limits assumed) above, with Q32A, A92Y counted along it
Chain of hTIGIT mutant L73A (human) (Q495A1 22-141 L73A limits assumed): as the sequence (Q495A1 22-141 Y113A limits assumed) above, with L52A, A92Y counted along it
Chain of hTIGIT mutant N70A (human) (Q495A1 22-141 N70A limits assumed): as the sequence (Q495A1 22-141 Y113A limits assumed) above, with N49A, A92Y counted along it
Chain of hTIGIT mutant H76A (human) (Q495A1 22-141 H76A limits assumed): as the sequence (Q495A1 22-141 Y113A limits assumed) above, with H55A, A92Y counted along it

Kd [1]: > 100 nM | Kd [2]: > 100 nM | Binding affinity drop vs. WT [3]: > 56 fold | Binding affinity drop vs. WT [4]: > 56 fold
B1: 7.4A3.C96S.Q1E (antibody, V domains shown)
VH: EVQLVQSGSDLKKPGASVRVSCKASGYTFTSYPMNWVRQAPGHGLEWMGWINTNTGNPTYVQGFTGRFVFSLDTSVNTAYLQISSLKAEDTAVYFCARTGGHTYDSYAFDVWGQGTMVTVSS
VL: DIQLTQSPTFLSASVGDRVTITCRASQVISSSLAWYQQNPGKAPKLLIYAASTLQSGVPSRFSGSGSGTEFTLTISSLQPEDFVTYYCQHLHGYPSNFGQGTKVEIK

Kd [5]: > 100 nM | Kd [6]: > 100 nM | Binding affinity drop vs. WT [7]: > 143 fold | Binding affinity drop vs. WT [8]: > 143 fold
B2: h6B2.L2H5 (antibody, V domains shown)
VH: EVTLKESGPALVKPTQTLTLTCTFSGFSLSTYGMGVSWIRQPPGKALEWLASIWWNGNTYYNPSLKSRLTITKDTSKNQVVLTMTNMDPVDTATYYCAHTGGAVITWFAYWGQGTLVTVSS
VL: DIQMTQSPSSLSASVGDRVTITCKASQSVGKNIAWYQQKPGKAPKLLIYYASNRYTGVPSRFSGSGSGTDFTFTISSLQPEDIATYYCQHIYNSPYPFGQGTKVEIK

Kd [9]: > 500 nM | Kd [1]: > 500 nM | Kd [2]: > 500 nM | Binding affinity drop vs. WT [10]: > 16.2 fold | Binding affinity drop vs. WT [3]: > 16.2 fold | Binding affinity drop vs. WT [4]: > 16.2 fold
B3: 4.1A4.C96S.Q1E (antibody, V domains shown)
VH: EVQLVQSGSELKKPGASVKVSCKASGYTLTNYPMNWVRQAPGRGLEWMGWINTNTGSPAYAQDFTERFVFSLDTSVTTAYLQISSLKAEDTAVYYCARTAITSVYHFDYWGQGTLVTVSS
VL: DIQLTQSPSFLSASVGDRVTITCRASQGISSYLAWYQQKPGKAPRVLIYGATTLQSGVPSRFSGSESGTEFTLTISSLQPEDLATYYCQKLNSHPSSFGQGTKVEIK
